Experiments:
[1] = biological target: T1, α4β1 integrin expressed on cells (UniProt P13612 34-1032; P05556 21-798, limits assumed); test: flow cytometry on Ramos cells
T1 construct: whole, on cells; also called α4β1 on Ramos cells; α4β1 on HuT-78 cells
Description: (§1) Antibody binding to α4β7 integrin or α4β1 integrin expressed on cells was determined using FACS and two cell lines. […] The second cell line was Ramos and is known to only express α4β1. Briefly, cells were cultured and harvested according to standard vendor instructions. Cells were stained with purified antibodies at concentrations of 0 nM, 0.0064 nM, 0.032 nM, 0.16 nM, 0.8 nM, 4 nM, 20 nM, and 100 nM and incubated at 4° C. for 1 hour. Cells were subsequently stained with an Alexa Fluor 488-conjugated goat anti-human IgG secondary antibody at a 1:1000 dilution. Cells were incubated 4° C. for 1 hour, protected from light. Cells were then washed and the MFI of cells in each well were recorded by FACS using a flow cytometer. Subsequent data were analyzed using GraphPad Prism. […] On the other hand, an anti-α4 antibody tested binds to both cell lines.

[2] = biological target: T2, recombinant human α4β7 integrin (human, UniProt P13612 34-977; P26010 20-723, limits assumed); test: SPR, antibody captured on anti-human Fc CM5 chip, recombinant human α4β7 integrin as analyte, 25 °C, 1:1 model
T2 sequence (P13612 34-977 limits assumed, chain 1 of 2): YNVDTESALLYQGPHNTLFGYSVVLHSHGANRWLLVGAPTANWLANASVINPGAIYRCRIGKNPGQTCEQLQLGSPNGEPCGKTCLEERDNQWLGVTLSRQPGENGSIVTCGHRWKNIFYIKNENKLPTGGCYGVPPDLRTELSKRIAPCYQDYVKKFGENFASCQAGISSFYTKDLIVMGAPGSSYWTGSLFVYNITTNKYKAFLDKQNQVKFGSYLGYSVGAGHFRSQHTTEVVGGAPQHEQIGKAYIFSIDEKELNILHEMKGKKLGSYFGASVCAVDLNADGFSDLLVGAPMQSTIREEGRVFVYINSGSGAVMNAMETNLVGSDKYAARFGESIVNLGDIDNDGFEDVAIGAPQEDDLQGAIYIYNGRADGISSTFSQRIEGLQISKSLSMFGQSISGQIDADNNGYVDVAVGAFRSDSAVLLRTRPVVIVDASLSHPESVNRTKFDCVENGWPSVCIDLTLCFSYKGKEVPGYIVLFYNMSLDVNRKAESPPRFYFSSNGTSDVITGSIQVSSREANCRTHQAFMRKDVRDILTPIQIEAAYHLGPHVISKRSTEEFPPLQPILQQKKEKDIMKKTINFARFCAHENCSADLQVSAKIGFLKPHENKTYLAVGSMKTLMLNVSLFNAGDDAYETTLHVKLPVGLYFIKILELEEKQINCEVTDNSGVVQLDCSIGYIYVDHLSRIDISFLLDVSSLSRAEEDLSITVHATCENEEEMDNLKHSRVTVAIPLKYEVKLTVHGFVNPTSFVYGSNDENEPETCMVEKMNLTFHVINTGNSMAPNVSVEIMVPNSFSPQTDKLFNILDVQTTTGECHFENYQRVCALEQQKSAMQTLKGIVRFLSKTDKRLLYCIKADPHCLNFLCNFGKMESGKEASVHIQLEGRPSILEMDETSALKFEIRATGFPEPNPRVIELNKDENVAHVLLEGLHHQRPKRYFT
T2 sequence (P26010 20-723 limits assumed, chain 2 of 2): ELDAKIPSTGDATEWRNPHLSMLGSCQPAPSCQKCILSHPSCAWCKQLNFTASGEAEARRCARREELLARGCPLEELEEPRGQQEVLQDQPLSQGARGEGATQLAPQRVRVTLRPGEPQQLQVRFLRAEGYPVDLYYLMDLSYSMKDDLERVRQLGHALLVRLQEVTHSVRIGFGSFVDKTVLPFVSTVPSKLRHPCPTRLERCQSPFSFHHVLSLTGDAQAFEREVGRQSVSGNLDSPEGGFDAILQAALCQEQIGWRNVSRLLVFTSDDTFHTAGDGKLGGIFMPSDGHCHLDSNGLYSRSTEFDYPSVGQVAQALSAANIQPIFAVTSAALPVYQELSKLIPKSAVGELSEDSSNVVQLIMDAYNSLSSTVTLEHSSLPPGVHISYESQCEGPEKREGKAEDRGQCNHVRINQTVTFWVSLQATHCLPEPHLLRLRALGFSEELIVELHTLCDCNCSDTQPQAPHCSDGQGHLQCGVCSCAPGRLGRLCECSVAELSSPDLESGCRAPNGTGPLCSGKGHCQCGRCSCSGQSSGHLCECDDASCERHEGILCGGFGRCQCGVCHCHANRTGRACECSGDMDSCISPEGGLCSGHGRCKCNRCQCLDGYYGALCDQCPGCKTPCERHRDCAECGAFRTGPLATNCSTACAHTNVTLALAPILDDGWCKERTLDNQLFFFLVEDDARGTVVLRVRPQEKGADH
Description: (§2) Following a stabilization period in running buffer, antibodies previously diluted to 1-1.5 μg/mL were captured on the chip for 30 seconds at a flow rate of 10 μL/min. Subsequently, recombinant human α4β7 integrin was prepared at concentrations of 1.563 nM, 3.125 nM, 6.25 nM, 12.5 nM, 25 nM, 50 nM and 100 nM and injected at a flow rate of 30 μL/min for 180 seconds followed by a dissociation phase with just running buffer at a flow rate of 30 μL/min for 1200 seconds. Samples were injected in a multi-cycle manner over freshly captured mAb, by regenerating the capture surfaces with injection of 10 mM Glycine, pH 1.5. The data was processed and analyzed with SPR analysis software, where sensorgrams were fit to a 1:1 binding model to determine the apparent association (ka) and dissociation rate constants (kd). Their ratio provided the apparent equilibrium dissociation constant or affinity constant (KD=kd/ka).

[3] = biological target: T2, recombinant human α4β7 integrin; test: SPR, antibody captured on anti-human Fc CM5 chip, recombinant human α4β7 integrin as analyte, 25 °C, 1:1 model; apparent KD
Description: as §2

[4] = biological target: T3, α4β7 integrin expressed on cells (UniProt P13612 34-1032; P26010 20-798, limits assumed); test: flow cytometry on RPMI-8866 cells (α4β7 only)
T3 construct: whole, on cells; also called α4β7 integrin on RPMI-8866 cells; α4β7 on HuT-78 cells
T3 sequence (P13612 34-1032 limits assumed, chain 1 of 2): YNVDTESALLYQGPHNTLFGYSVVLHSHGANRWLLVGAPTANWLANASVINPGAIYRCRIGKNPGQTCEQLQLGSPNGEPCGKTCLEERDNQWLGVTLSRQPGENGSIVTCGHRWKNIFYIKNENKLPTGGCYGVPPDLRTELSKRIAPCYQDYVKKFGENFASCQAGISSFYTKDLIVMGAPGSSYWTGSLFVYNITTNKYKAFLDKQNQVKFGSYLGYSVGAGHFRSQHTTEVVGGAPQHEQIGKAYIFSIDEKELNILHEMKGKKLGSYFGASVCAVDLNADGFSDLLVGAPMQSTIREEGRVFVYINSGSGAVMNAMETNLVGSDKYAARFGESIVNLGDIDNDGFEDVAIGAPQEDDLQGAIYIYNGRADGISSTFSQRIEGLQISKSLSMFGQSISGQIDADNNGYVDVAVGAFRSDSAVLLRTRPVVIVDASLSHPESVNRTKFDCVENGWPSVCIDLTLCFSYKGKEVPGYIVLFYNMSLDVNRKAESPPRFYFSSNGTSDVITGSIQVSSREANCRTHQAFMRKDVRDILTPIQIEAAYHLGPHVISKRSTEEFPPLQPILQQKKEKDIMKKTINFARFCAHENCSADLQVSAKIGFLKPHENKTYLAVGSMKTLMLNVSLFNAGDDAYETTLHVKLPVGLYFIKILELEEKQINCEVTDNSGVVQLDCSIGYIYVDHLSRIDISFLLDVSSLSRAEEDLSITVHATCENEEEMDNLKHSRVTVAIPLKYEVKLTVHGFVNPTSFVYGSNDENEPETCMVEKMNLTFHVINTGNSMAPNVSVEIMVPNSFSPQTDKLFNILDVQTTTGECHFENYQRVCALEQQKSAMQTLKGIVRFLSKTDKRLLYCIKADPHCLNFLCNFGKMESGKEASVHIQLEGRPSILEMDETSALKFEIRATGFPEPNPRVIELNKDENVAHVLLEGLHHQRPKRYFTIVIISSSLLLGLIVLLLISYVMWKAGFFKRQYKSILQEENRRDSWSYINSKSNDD
T3 sequence (P26010 20-798 limits assumed, chain 2 of 2): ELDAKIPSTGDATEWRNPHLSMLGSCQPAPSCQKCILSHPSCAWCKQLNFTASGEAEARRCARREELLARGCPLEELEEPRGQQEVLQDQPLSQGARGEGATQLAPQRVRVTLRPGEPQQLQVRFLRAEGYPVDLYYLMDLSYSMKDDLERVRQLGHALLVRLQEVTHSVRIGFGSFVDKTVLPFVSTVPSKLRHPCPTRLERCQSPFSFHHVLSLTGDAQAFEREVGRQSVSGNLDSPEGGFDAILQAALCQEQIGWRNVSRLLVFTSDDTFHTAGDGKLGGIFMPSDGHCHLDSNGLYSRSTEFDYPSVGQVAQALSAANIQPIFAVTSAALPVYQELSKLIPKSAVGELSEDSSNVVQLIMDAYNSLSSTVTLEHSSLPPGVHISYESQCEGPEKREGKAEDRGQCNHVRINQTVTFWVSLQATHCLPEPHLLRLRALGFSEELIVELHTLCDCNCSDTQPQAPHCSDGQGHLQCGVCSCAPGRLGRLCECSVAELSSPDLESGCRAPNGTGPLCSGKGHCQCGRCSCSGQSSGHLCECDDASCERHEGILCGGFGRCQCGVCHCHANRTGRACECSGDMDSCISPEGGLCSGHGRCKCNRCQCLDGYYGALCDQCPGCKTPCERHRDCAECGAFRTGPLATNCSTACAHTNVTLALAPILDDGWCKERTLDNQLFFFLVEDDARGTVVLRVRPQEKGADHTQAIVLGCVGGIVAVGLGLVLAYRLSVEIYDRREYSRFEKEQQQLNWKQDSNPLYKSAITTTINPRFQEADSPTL
Description: as §1

[5] = biological target: T3, α4β7 integrin expressed on cells; test: cell-based or functional assay

T1 sequence (P13612 34-1032 limits assumed, chain 1 of 2): as the sequence (P13612 34-1032 limits assumed, chain 1 of 2) above
T1 sequence (P05556 21-798 limits assumed, chain 2 of 2): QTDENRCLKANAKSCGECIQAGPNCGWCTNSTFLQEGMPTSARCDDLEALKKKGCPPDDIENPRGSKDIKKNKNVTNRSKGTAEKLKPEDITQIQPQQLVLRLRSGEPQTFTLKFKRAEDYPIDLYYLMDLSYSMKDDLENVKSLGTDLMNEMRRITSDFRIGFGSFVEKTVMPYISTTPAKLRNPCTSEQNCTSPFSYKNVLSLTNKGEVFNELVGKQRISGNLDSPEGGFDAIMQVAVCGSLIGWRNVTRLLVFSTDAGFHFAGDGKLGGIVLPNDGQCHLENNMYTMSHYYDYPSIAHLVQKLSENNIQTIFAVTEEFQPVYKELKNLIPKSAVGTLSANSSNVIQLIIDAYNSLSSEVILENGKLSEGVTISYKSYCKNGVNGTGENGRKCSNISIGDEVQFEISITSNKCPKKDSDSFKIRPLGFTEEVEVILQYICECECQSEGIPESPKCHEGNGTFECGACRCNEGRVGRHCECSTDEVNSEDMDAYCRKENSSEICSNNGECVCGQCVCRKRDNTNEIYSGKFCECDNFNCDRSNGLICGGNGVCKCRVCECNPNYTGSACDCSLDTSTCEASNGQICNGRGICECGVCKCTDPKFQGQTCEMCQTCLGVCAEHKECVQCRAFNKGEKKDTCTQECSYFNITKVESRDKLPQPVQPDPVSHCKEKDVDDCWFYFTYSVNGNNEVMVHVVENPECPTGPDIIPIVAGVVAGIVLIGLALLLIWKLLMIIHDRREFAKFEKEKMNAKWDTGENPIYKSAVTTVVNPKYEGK

B1: Antibody 1 (antibody, V domains shown)
VH: EVQLVQSGAEVKKPGSSVKVSCKASGGTFTSYWMHWVRQAPGQGLEWMGEIDPSESNTNYNQKFKGRATITADISTSTAYMELSSLRSEDTAVYYCARGGYDGWDYAIDYWGQGTLVTVSS
VL: DVVMTQTPLSLPVTPGQPASISCRSSQSLAKSYGNTYLSWYLQKPGQSPQLLIYGISNRFSGVPDRFSGSGSGTDFTLKISRVEAEDVGVYYCLQGTHQPYTFGQGTKLEIK
notes: It has a human Fc: captured by anti-human Fc in SPR, detected by anti-human IgG in FACS
In the case of B1, the binding result [1] is reported as “no binding (tested: 100 nM (highest concentration tested))”, the koff [2] is reported as 0.000466 s⁻¹ and the kon [2] is reported as 68500 M⁻¹ s⁻¹. The Kd [3] was 6.79 nM, the EC50 [4] was 0.2 nM and the “MAdCAM-1 Adhesion Inhibition IC50” value [5] was 0.087 nM.

B2: Antibody 2 (antibody, V domains shown)
VH: EVQLVESGGGVVQPGRSLRLSCAASGYTFTSYWMHWVRQAPGKGLEWIGEIDPSESNTNYNQKFKGRATISVDNSKNTAYLQMSSLRAEDTAVYYCARGGYDGWDYAIDYWGQGTLVTVSS
VL: B1 VL
notes: as for B1
B2 was tested, and the binding result [1] was “no binding (tested: 100 nM (highest concentration tested))”, the koff [2] was 0.000118 s⁻¹ and the kon [2] was 56400 M⁻¹ s⁻¹. For the same binder, the Kd [3] was 2.1 nM, the EC50 [4] was 0.27 nM and the “MAdCAM-1 Adhesion Inhibition IC50” value [5] was 0.15 nM.
